Test results published in paper PMC11570956.
Several values for one entry are separate records, joined by “and”; a condition that tells them apart may be missing. Identical values can stand only once.

Key:
Experiment in all cases: fluorescence anisotropy
eIF4B (Homo sapiens) = conditions: 20 mM HEPES-KOH pH 7.6, 200 mM KCl, 1 mM MgCl2, 25 ± 0.5 °C; 10 nM labeled RNA; co-factors 1 µM eIF4A, 1 µM eIF4E, 1 mM ATP (2.5 µM proteins also stated)
[1] = system: eIF4GI557-1599;eIF4A;eIF4E (Homo sapiens;;Homo sapiens); conditions: 20 mM HEPES-KOH pH 7.6, 200 mM KCl, 1 mM MgCl2, 25 ± 0.5 °C, 10 nM labeled RNA, co-factors 1 µM eIF4A, 1 µM eIF4E, 1 mM ATP (2.5 µM proteins also stated)
eIF4A = conditions: 20 mM HEPES-KOH pH 7.6, 200 mM KCl, 1 mM MgCl2, 25 ± 0.5 °C; 10 nM labeled RNA; co-factors 1 µM eIF4A, 1 µM eIF4E, 1 mM ATP (2.5 µM proteins also stated)
[2] = system: eIF4GI557-1599;eIF4A (Homo sapiens;Homo sapiens?); conditions: 20 mM HEPES-KOH pH 7.6, 200 mM KCl, 1 mM MgCl2, 25 ± 0.5 °C, 10 nM labeled RNA, co-factors 1 µM eIF4A, 1 µM eIF4E, 1 mM ATP (2.5 µM proteins also stated)
[3] = system: eIF4GI682-1599;eIF4A;eIF4E (Homo sapiens;;Homo sapiens); conditions: 20 mM HEPES-KOH pH 7.6, 200 mM KCl, 1 mM MgCl2, 25 ± 0.5 °C; 10 nM labeled RNA; co-factors 1 µM eIF4A, 1 µM eIF4E, 1 mM ATP (2.5 µM proteins also stated)
[4] = system: eIF4GI557-1599;eIF4E (Homo sapiens;Homo sapiens); conditions: 20 mM HEPES-KOH pH 7.6, 200 mM KCl, 1 mM MgCl2, 25 ± 0.5 °C; 10 nM labeled RNA; co-factors 1 µM eIF4A, 1 µM eIF4E, 1 mM ATP (2.5 µM proteins also stated)
[5] = system: eIF4GI682-1599 (Homo sapiens); conditions: 20 mM HEPES-KOH pH 7.6, 200 mM KCl, 1 mM MgCl2, 25 ± 0.5 °C; 10 nM labeled RNA; co-factors 1 µM eIF4A, 1 µM eIF4E, 1 mM ATP (2.5 µM proteins also stated)
[6] = system: eIF4GI682-1599;eIF4E (Homo sapiens;Homo sapiens); conditions: 20 mM HEPES-KOH pH 7.6, 200 mM KCl, 1 mM MgCl2, 25 ± 0.5 °C; 10 nM labeled RNA; co-factors 1 µM eIF4A, 1 µM eIF4E, 1 mM ATP (2.5 µM proteins also stated)
[7] = system: eIF4GI557-1599;eIF4A;eIF4B (Homo sapiens;;Homo sapiens); conditions: 20 mM HEPES-KOH pH 7.6, 200 mM KCl, 1 mM MgCl2, 25 ± 0.5 °C, 10 nM labeled RNA, co-factors 1 µM eIF4A, 1 µM eIF4E, 1 mM ATP (2.5 µM proteins also stated)
[8] = system: eIF4GI557-1599;eIF4A;eIF4E;eIF4B (Homo sapiens;Homo sapiens?;Homo sapiens;Homo sapiens); conditions: 20 mM HEPES-KOH pH 7.6, 200 mM KCl, 1 mM MgCl2, 25 ± 0.5 °C; 10 nM labeled RNA; co-factors 1 µM eIF4A, 1 µM eIF4E, 1 mM ATP (2.5 µM proteins also stated)
[9] = system: eIF4GI557-1599 (Homo sapiens); conditions: 20 mM HEPES-KOH pH 7.6, 200 mM KCl, 1 mM MgCl2, 25 ± 0.5 °C; 10 nM labeled RNA; co-factors 1 µM eIF4A, 1 µM eIF4E, 1 mM ATP (2.5 µM proteins also stated)
[10] = system: eIF4GI682-1599;eIF4A (Homo sapiens;Homo sapiens?); conditions: 20 mM HEPES-KOH pH 7.6, 200 mM KCl, 1 mM MgCl2, 25 ± 0.5 °C; 10 nM labeled RNA; co-factors 1 µM eIF4A, 1 µM eIF4E, 1 mM ATP (2.5 µM proteins also stated)

## FGF-9 5'UTR (uncapped)
eIF4B (Homo sapiens)
  Kd: 38 nM
[1]
  Kd: 18 nM
[1]; ADP
  Kd: 13 nM
[1]; no nucleotide
  Kd: 15 nM
eIF4A
  Kd: 667 nM and 115 nM
[2]
  Kd: 14 nM
[2]; no nucleotide
  Kd: 16 nM
[3]
  Kd: 20 nM and 30 nM
[4]
  Kd: 16 nM
[5]
  Kd: 120 nM
[6]
  Kd: 110 nM
[7]
  Kd: 19 nM
[7]; AMP-PNP
  Kd: 20 nM
[7]; no nucleotide
  Kd: 24 nM
[8]
  Kd: 14 nM
[9]
  Kd: 14 nM
[10]
  Kd: 26 nM and 16 nM

## HIF-1α 5'UTR (uncapped)
eIF4B (Homo sapiens)
  Kd: 54 nM
[1]
  Kd: 22 nM
[1]; ADP
  Kd: 26 nM
[1]; no nucleotide
  Kd: 14 nM
eIF4A
  Kd: 252 nM and 28 nM
[2]
  Kd: 13 nM
[2]; no nucleotide
  Kd: 17 nM
[3]
  Kd: 21 nM and 16 nM
[4]
  Kd: 15 nM
[5]
  Kd: 139 nM
[6]
  Kd: 142 nM
[7]
  Kd: 17 nM
[7]; AMP-PNP
  Kd: 14 nM
[7]; no nucleotide
  Kd: 12 nM
[8]
  Kd: 19 nM
[9]
  Kd: 50 nM
[10]
  Kd: 17 nM and 20 nM
